Biological target: 破伤风标准毒素 (破伤风毒素蛋白) (Clostridium tetani, UniProt P04958 2-1315)
Sequence (P04958 2-457 limits assumed, chain 1 of 2): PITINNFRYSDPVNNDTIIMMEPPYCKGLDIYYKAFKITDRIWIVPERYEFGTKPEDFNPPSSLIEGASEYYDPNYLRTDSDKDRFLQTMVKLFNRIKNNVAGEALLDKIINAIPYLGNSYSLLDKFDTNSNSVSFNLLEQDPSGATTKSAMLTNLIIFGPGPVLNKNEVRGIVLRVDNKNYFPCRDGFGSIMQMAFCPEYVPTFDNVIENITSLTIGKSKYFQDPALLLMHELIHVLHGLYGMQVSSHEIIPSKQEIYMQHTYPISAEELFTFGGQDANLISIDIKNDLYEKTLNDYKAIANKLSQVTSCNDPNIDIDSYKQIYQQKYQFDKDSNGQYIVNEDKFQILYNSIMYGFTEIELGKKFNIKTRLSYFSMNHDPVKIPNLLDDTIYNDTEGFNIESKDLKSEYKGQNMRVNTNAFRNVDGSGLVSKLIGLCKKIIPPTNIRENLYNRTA
Sequence (P04958 458-1315 limits assumed, chain 2 of 2): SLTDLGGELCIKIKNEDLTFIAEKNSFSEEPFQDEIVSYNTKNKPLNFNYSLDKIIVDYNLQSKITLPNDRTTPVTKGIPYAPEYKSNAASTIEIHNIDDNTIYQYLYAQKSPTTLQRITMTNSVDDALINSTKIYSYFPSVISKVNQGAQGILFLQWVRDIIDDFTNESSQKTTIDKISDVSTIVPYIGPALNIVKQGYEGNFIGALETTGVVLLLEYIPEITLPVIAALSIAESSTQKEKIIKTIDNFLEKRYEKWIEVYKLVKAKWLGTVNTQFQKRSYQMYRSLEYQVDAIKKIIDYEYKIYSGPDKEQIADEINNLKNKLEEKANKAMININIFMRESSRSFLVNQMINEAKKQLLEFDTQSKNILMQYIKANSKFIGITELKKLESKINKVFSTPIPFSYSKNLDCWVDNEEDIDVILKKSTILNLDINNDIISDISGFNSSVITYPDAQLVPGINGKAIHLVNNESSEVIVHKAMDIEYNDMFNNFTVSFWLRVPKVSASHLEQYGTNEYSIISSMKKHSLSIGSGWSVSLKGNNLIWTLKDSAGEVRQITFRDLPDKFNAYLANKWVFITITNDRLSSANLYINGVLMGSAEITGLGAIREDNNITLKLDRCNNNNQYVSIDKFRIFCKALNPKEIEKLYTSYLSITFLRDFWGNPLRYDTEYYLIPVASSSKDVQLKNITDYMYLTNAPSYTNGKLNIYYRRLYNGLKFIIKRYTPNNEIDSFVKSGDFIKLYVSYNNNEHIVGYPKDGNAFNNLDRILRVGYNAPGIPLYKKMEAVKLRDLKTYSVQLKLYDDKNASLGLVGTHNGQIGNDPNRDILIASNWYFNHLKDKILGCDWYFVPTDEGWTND

B1: TRN0011抗体 (全人源抗破伤风毒素中和抗体) (antibody, V domains shown)
VH: QVQLQESGAGLVKPSETLSLTCGVAGGPFTGSYLSWIRQPPGKGLEWIGEVSQSGSTSYNPSLKSRVTISVDTSKSQFSLKLSSVTAADTAVYYCARLTKHYINSAYWGQGTLVTVSS
VL: DIQMTQSPSILSASVGDRVTITCRASQIIGSWLAWYQQKPGKAPTLVIYKASRLDSGVPSRFSGTESGTEFTLTISSLQPDDFATYYCQQYNSYPYTFGQGTKLEIK
  Kd: 0.905 nM
  koff: 3.87e-05 s⁻¹
  kon: 42700 M⁻¹ s⁻¹
